Test system: casein

GST-WKS1_Kinase fusion protein
in-gel kinase activity: The WKS1 Ser/Thr kinase domain (pfam00069) was confirmed to have kinase activity (FIG. 17)

— patent US20120047604
